Experimental data reported in US20240409645A1 (DUALYX, published 2024).

T1: human IL-2Rγ (common cytokine receptor γ-chain) (human, UniProt P31785 23-262, limits assumed)
T1 construct: Recombinant protein coated on the plate or immobilised on a CM5 chip; also called hu IL-2R; CD132
T1 sequence: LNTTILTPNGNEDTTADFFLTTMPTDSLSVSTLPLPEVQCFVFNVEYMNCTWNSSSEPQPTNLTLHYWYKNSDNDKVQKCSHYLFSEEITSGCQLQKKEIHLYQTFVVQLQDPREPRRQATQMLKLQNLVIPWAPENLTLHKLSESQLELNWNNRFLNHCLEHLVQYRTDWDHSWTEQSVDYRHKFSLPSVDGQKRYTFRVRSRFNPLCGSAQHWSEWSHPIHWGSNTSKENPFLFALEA

T2: human IL-2Rβ (human, UniProt P14784 27-240, limits assumed)
T2 construct: Recombinant protein, coated (ELISA) or immobilised on CM5 (SPR); also called hu IL-2R; interleukin 2 receptor β-chain
T2 sequence: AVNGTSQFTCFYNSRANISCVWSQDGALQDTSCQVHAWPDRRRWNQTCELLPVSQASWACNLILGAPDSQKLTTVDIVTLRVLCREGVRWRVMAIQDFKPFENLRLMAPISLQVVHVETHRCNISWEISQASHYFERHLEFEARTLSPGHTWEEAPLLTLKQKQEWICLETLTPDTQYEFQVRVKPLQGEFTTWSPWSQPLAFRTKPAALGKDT


What was measured:
[1] = target: T1, human IL-2Rγ (common cytokine receptor …); assay: SPR off-rate ranking, periplasmic extract on immobilised protein
Method: SPR was performed to determine dissociation rates using Biacore 3000 instrument (GE Healthcare). Briefly, human and mouse IL-2R proteins were immobilized on carboxylmethyl dextran sensor chip (CM5) at approximately 2500 RUs using amine coupling in acetate buffer (GE Healthcare). The VHH-containing P.E. were loaded with a flow rate of 30 uL/min and the off-rates were measured over a 120s period.

[2] = target: T1, human IL-2Rγ (common cytokine receptor …); assay: PE binding ELISA, periplasmic extract on coated protein
Method: In a binding ELISA, human or mouse IL-2Rα, IL-2Rβ and IL-2Rγ proteins were coated directly on maxisorp microtiter plates overnight at 4° C. Free binding sites were blocked using 4% Marvel in PBS for 1 hour. Next, 1:5 dilution of P.E. in 1% Marvel/PBS were added to wells and incubated for 1 hour. […] Binding specificity was determined based on O.D. at 450 nm values compared to negative controls.

human IL-2Rβ [3] = target: T2, human IL-2Rβ; assay: SPR (Biacore), P.E. off-rate ranking
human IL-2Rβ [4] = target: T2, human IL-2Rβ; assay: P.E. binding ELISA on coated protein
Outline: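 Direct-coat ELISA: receptor protein o/n 4° C → 4% Marvel/PBS block 1 h → P.E. 1:5 in 1% Marvel/PBS, 1 h → OD450 vs neg. controls.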

koff [1] [s⁻¹]	OD (PE binding ELISA) [2] [OD450 nm]	koff (human IL-2Rβ [3]) [s⁻¹]	P.E. binding ELISA OD (human IL-2Rβ [4]) [OD450 nm]	Binder
0.00131	0.362			27-MP04G01 (VHH, VHH in periplasmic extract; also called FJ1427_P035MP04G01; clone nr) VHH: QVQLVESGGGLVQAGGSLTLSCAAPGRTFGTDVVGWFRQAPGKEREFVASISRSGDGIYYDDSVKGRFTISRNNAWNTVNLQMNSLKVEDTAVYYCAAGDGWSTYDYWGQGTQVTVSS
0.00124	0.264			FJ1427_P035MP04C01 (VHH, VHH in periplasmic extract; also called clone nr) VHH: QVQLVESGGGLVQAGGSLTLSCAASGRTFSTDVVGWFRQAPGKEREFVASISRSGDGIYYDDSVKGRFTISRNNAWNTVNLQMNNLKVEDTAVYYCAAGDGWSTYDYWGQGTQVTVSS
	0.134			35-MP07G01 (VHH, VHH in periplasmic extract; also called FJ1427_P035MP07G01; clone nr) VHH: QVQLQESGGGLVQGGGSLRLSCAASGGIFSSYAMGWFRQAPGKEREFVAAISRSGRSTNYADSVKGRFTISRDNAKSTVYLQMNSLKPEETAVYYCAAGRYYNSAYDPSPGDFGSWGHGTQVTVSS
0.0091	0.863			FJ1427_P035MP04G07 (VHH, VHH in periplasmic extract; also called clone nr) VHH: QVQLVESGGGWVQVGESLRLSCAPSGRTFVSGIMGWFRQAPGKEREFVARIILNNNSTRYTDSVKGRFTISRDSAKNTMYLQMNTLRPEDTAVYYCAARDRYGSGNSLSPSAYDYWGQGTQVTVSS
0.00844	1.49			30-MP04C03 (VHH, VHH in periplasmic extract; also called FJ1427_P035MP04C03; clone nr) VHH: EVQLVESGGGWVQDGGSLRLSCALSGRTFVRGIMGWFRQAPGKEREFVARIIWHINSTRYADSVKGRFTISRDSAKNTMYLQMDSLRPEDTAVYYCAARDRYGSGNSLSPSAYDYWGQGTQVTVSS
0.00775	1.81			FJ1427_P035MP04C05 (VHH, VHH in periplasmic extract; also called clone nr) VHH: QVQLVESGGGWVQVGESLRLSCAPSGRTFVSGIMGWFRQAPGKEREFVARIILNNNSTRYTDSVKGRFTISRDSAKDTMYLQMNTLRPEDTAVYYCAARDRYGSGNSLSPSAYDYWGQGTQVTVSS
0.00712	1.87			FJ1427_P035MP04A03 (VHH, VHH in periplasmic extract; also called clone nr) VHH: EVQLVESGGGWVQVGESLRLSCAPSGRTFVSGIMGWFRQTPGKEREFVARIILNNNSTRYTDSVKGRFTISRDSAKNTMYLQMNTLRPEDTAVYYCAARDRYGSGNSLSPSAYDYWGQGTQVTVSS
0.0205	1.33			FJ1427_P035MP04C10 (VHH, VHH in periplasmic extract; also called clone nr) VHH: QVQLQESGGGWVQVGESLRLSCVPSGRTFVSGIMGWFRQAPGKEREFVARIILNNNSTRYTDSVKGRFTISRDSAKNTMYLQMNTLRPEDTAVYYCAARDRYGSGNSLSPSAYDYWGQGTQVTVSS
0.00749	1.47			FJ1427_P035MP04B10 (VHH, VHH in periplasmic extract; also called clone nr) VHH: EVQLVESGGGWVQVGESLRLSCAPSGRTFVSGIMGWFRQAPGKEREFVARIILNNNSTRYIDSVKGRFTISRDSAKNTMYLQMDSLRPEDTAVYYCAARDRYGSGNSLSPSAYDYWGQGTQVTVSL
0.0285	1.97			FJ1427_P035MP04B02 (VHH, VHH in periplasmic extract; also called clone nr) VHH: QVQLVESGGGWVQVGESLRLSCAPSGRTFVSGIMGWFRQTPGKEREFVARIILNNNSTRYTDSVKGRFTISRDSAKNTMYLQMNTLRPEDTAVYYCAARDRYGSGNSLSPSAYDYWGQGTQVTVSS
0.0204	1.85			FJ1427_P035MP04A10 (VHH, VHH in periplasmic extract; also called clone nr) VHH: EVQLVESGGGWVQVGESLRLSCAPSGRTFVSGIMGWFRQAPGKEREFVARIILNNNSTRYTDSVKGRFTISRDSAKNTMYLQMNTLRPEDTAVYYCAARDRYGSGNSLSPSAYDYWGQGTQVTVSS
0.0208	1.45			FJ1427_P035MP04B06 (VHH, VHH in periplasmic extract; also called clone nr; 330) VHH: QLQLVESGGGWVQVGESLRLSCVPSGRTFVSGIMGWFRQAPGKEREFVARIILNNNSTRYTDSVKGRFTISRDSAKNTMYLQMNTLRPEDTAVYYCAARDRYGSGNSLSPSAYDYWGQGTQVTVSS
0.0196	1.9			FJ1427_P035MP04A07 (VHH, VHH in periplasmic extract; also called clone nr) VHH: QLQLVESGGGWVQVGESLRLSCAPSGRTFVSGIMGWFRQAPGKEREFVARIILNNNSTRYIDSVKGRFTISRDSAKNTMYLQMDSLRPEDTAVYYCAARDRYGSGNSLSPSAYDYWGQGTQVTVSS
0.0187	1.94			FJ1427_P035MP04B07 (VHH, VHH in periplasmic extract; also called clone nr) VHH: EVQLVESGGGWVQVGESLRLSCAPSGRTFVSGIMGWFRQTPGKEREFVARIILNNNSTRYTDSVKGRFTISRDSAKNTLYLQMNTLRPEDTAVYYCAARDRYGSGNSLSPSAYDYWGQGTQVTVSS
0.0103	0.75			FJ1427_P035MP04B11 (VHH, VHH in periplasmic extract; also called clone nr; 370) VHH: EVQLVESGGGWVQVGESLRLSCAPSGRTFVSGIMGWFRQAPGKEREFVARIILNNNSTRYIDSVKGRFTISRDSAKNTMYLQMDSLRPEDTAVYYCAARDRYGSGNSLSPSAYDYWGQGTQVTVSS
		0.000143	0.557	FJ1427 P035MP06G01 (VHH, soluble VHH in periplasmic extract; also called clone nr) VHH: EVQLVESGGGLVQAGDSLRLSCVVSGRGFSTYTMGWFRQAPGKEREFVAAITWSTGRTSYADSVKGRFTISRENAENTVYLQMNSLELEDTAVYYCATDQVLWTTRPRDMRYWGQGTQVTVSF
		0.0014	0.321	FJ1427 P035MP03C12 (VHH, soluble VHH in periplasmic extract; also called clone nr) VHH: QVQLVESGGGLVQAGGSLRLSCAASGRAFSTYSMGWFRQTPGKEREFVAIISESGGIIDYGDSVKGRFTLSRDNAKNTVSLQMSSLQPEDTAVYYCAAARDWFARTAYQYDYWGQGTQVTVSA
		0.00109	0.578	FJ1427 P035MP03H10 (VHH, soluble VHH in periplasmic extract; also called clone nr) VHH: QVQLVESGGGLVQAGGSLRLSCAASGRTFSTTEMGWFRQAPGKEREFVAAITWTGRGTMYAESVEGRFTISRENAKNMVYLQMNSLKPEDTAIYYCAAARRGRAAVRSEGGYDFWGQGTQVTVSS
0.00625	0.157			29-MP04H02 (VHH, VHH in periplasmic extract; also called FJ1427_P035MP04H02; clone nr) VHH: QVQLVESGGGLVQAGGSLRLACVASGLTFDNYYMGWFRQAPGKEREFVAGIIWNGDHTAYADSIKGRFTISRDNAKNTAYLRMNSLKPEDTAVYYCAATFWIERATTPDIGQYAYWGQGTQVTVSS
		0.00207	0.398	FJ1427_P035MP03E10 (VHH, soluble VHH in periplasmic extract; also called clone nr) VHH: EVQLVESGGGLVQPGGSLRLSCAASGFTFRNYAMSWVRQAPGKGLEWVGGITGEGLGTIYQDSVEGRFTISRNNAKNTLYLQMNSLRSEDTAVYYCTKMASGTLFRDKPYEYTSRGQGTQVTVSS
		0.00165	0.26	FJ1427_P035MP03G10 (VHH, soluble VHH in periplasmic extract; also called clone nr) VHH: QVQLVESGGGLVQAGGSLRLSCAASGRSYAMGWFRQAPGKEREFVAAISWSASSTYYSESVKGRFTISRENAKNTVYLQMNSLKPEDTAVYYCAVRASPFVAGSYDPSDDPADYGSWGQGTQVIVSS
		0.000277	0.474	FJ1427 P035MP03F11 (VHH, soluble VHH in periplasmic extract; also called clone nr) VHH: QVQLVESGGGLAQAGGSLRLSCAASGRTFSQDAKAWFRQAPGKEREFVAAITWSGRDTDYADSVKGRFTIARDNAKNTVYLQMDSLKPEDTAVYYCAVYPQGTIGPYFRSSNHYDYWGQGTQVTVSS
		0.00102	0.118	FJ1427 P035MP03D11 (VHH, soluble VHH in periplasmic extract; also called clone nr) VHH: QVQLVESGGGLVQAGGSLRLSCAASGRTFSTTDVGWFRQAPGKEREFVAAITWSSHSTLYADSVEGRFTVTRENAKNTVYLQMNSLKPEDTAVYYCAAVRRGWAVVRTEGAYDFWGQGTQVTVSA
0.00331	0.896			36-MP07F02 (VHH, VHH in periplasmic extract; also called FJ1427_P035MP07F02; clone nr; 590) VHH: QVQLVESGGGLVQAGGSLRLSCAASGRTLSRYAMGWFRQAPGSEREFVAASSWGGDTFYADSVEGRFTFSRDNAKNAVYLQMNSLQPEDTAAYYCAAAPTSFPTTAYSSSNSYAYWGQGTQVTVSS
0.00327	0.873			FJ1427_P035MP04B01 (VHH, VHH in periplasmic extract; also called clone nr; 290) VHH: EVQLVESGGGLVQAGASLRLSCAASGRTLSRYAMGWFRQAPGKEREFVAASSWGGDTYYADSVEGRFTFSRDNAKNAVYLQMNSLQPEDTAVYYCAGAPTSFATTAYSSSNSYAYWGQGTQVTVSS
